Measurements reported in paper PMC5874916.
pKd: −log10 of the molar value.

Legend:
HaloTag-eEF1A [1] = molecular target: HaloTag-eEF1A (UniProt P68104); experiment: FRET or BRET; NanoBRET in HEK293T cells cotransfected with 5 ng RTp66-NanoLuc (donor) and 500 ng HaloTag-eEF1A (acceptor), HaloTag NanoBRET 618 Ligand; BRET ratio of the RSV P-NanoLuc control subtracted, normalized to WT RT
[2] = molecular target: purified recombinant eEF1A1 (OriGene), biotinylated (UniProt P68104); experiment: BLI; Octet Red; biotinylated eEF1A1 immobilised on streptavidin-coated biosensors, 90 nM RTp51/p66 heterodimer; kinetic buffer 1 mM phosphate, 15 mM NaCl, 0.002% Tween 20, 0.1 mg/ml gelatin
HaloTag-eEF1A [3] = molecular target: HaloTag-eEF1A (UniProt P68104); experiment: NanoBRET; settings: HEK293T cells cotransfected; n = 3; parent: est. 100; read off a plot
[4] = molecular target: purified recombinant eEF1A1 (OriGene), biotinylated (UniProt P68104); experiment: BLI; settings: biotinylated eEF1A immobilized on a streptavidin-coated biosensor, 90 nM RT heterodimer, E300R in both RTp51 and RTp66 subunits
[5] = molecular target: HIV-1 reverse transcriptase (Human immunodeficiency virus 1) (UniProt O93215); settings: cited from earlier work

purified recombinant eEF1A1 (OriGene), biotinylated, sequence (P68104 whole entry): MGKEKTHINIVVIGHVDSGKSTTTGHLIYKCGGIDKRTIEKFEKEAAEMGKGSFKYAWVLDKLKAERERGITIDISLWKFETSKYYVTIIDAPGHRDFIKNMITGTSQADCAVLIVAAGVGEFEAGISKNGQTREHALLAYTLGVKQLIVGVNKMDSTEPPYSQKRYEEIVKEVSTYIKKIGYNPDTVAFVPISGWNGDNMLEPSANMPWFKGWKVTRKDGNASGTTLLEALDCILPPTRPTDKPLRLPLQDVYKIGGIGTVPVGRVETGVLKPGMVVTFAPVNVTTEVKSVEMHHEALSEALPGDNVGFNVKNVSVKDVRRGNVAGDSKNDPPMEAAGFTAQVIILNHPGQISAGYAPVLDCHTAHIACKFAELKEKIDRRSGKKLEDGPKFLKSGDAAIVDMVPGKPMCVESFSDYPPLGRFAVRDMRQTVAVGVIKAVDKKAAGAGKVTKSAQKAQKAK
HaloTag-eEF1A, sequence (P68104 whole entry): as above
eEF1A, sequence (P68104 2-462): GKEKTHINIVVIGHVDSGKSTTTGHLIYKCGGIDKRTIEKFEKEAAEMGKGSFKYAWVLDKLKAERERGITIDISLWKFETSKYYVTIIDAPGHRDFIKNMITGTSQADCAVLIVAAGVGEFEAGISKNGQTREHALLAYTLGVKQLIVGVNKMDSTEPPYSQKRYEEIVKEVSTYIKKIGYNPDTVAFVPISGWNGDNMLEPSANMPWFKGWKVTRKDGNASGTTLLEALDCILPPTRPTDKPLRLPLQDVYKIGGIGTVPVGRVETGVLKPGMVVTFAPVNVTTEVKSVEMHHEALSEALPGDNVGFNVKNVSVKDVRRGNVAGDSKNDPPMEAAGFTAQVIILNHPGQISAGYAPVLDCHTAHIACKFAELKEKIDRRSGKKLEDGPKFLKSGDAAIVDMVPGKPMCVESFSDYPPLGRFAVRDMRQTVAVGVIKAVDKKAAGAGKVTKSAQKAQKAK

Substance: HIV-1 RTp66-NanoLuc, E298R (enzyme)
- percent reduction of the BRET ratio against WT RT (HaloTag-eEF1A [1]): 40%

Substance: HIV-1 RTp66-NanoLuc, E300R (enzyme)
- percent reduction of the BRET ratio against WT RT (HaloTag-eEF1A [1]): 70%

Substance: 6xHis-tagged E300R mutant RTp51/p66 heterodimer purified from E. coli (complex)
- fold change of koff against the WT heterodimer [2]: 3 fold
- fold weaker binding affinity (KD) than the WT heterodimer [2]: 3 fold

Substance: HIV-1 RTp66-NanoLuc, wild type L303A
- percent of parent (HaloTag-eEF1A [3]): 43 % WT

Substance: HIV-1 RTp66-NanoLuc, D250R (enzyme)
- percent reduction of the BRET ratio against WT RT (HaloTag-eEF1A [1]): 33%

Substance: 6xHis-tagged WT RTp51/p66 heterodimer purified from E. coli (from UniProt P04585) E300R
- pKd ([4]; parent: 3.4787 ± 0.079): 7.99
- koff ([4]; parent: 4.75E-4 ± 2.5E-5): 0.00139 s⁻¹
- kon ([4]; parent: 136350 ± 4150): 135000 1/MS

Substance: eEF1A (from UniProt P68104)
- pKd [5]: 8.46

Substance: HIV-1 RTp66-NanoLuc, E297R (enzyme)
- percent reduction of the BRET ratio against WT RT (HaloTag-eEF1A [1]): 20%
